Measurements published in publication PMC4335309 (Journal of molecular biology, 2009).

Biological target: the molecule itself
Assay: crystal structure

B1: MukB-D (MukB construct 566–863: hinge domain with part of the coiled coil domain) (domain or fragment, Escherichia coli, UniProt P22523 566-863, looked up)
chain: IASLSDSVSNAREERMALRQEQEQLQSRIQSLMQRAPVWLAAQNSLNQLSEQCGEEFTSSQDVTEYLQQLLEREREAIVERDEVGARKNAVDEEIERLSQPGGSEDQRLNALAERFGGVLLSEIYDDVSLEDAPYFSALYGPSRHAIVVPDLSQVTEHLEGLTDCPEDLYLIEGDPQSFDDSVFSVDELEKAVVVKIADRQWRYSRFPEVPLFGRAARESRIESLHAEREVLSERFATLSFDVQKTQRLHQAFSRFIGSHLAVAFESDPEAEIRQLNSRRVELERALSNHENDNQQQR
  binding result: binds
